# Experimental data from article PMC3384007, “Crystal Structure of the VapBC Toxin–Antitoxin Complex from Shigella flexneri Reveals a Hetero-Octameric DNA-Binding Assembly” (Journal of Molecular Biology, 2011).
# T1: VapBC complex (VapB:His6-VapC), hetero-octamer VapB4C4 (Shigella flexneri (plasmid pMYSH6000), UniProt O06663;O06662 1-75;1-132)
# T1 sequence 1: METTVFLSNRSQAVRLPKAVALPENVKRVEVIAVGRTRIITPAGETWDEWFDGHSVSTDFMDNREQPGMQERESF
# T1 sequence 2: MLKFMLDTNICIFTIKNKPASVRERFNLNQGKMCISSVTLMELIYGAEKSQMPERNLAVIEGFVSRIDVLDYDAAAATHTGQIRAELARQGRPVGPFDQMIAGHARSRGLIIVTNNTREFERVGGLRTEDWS
# What was measured:
# [1] = target: the molecule itself; experiment: cross-linking; purified VapBC complex 1 mg/ml in 100 mM sodium borate pH 9.1 with dimethyl superimidate (DMSI), aliquots after 5-120 min, 15% Coomassie-stained SDS-PAGE
# [2] = target: the molecule itself; experiment: crystal structure; His6-VapB:VapC complex, 7 mg/ml; crystals in 0.1 M Bis-Tris pH 5.5, 1 M ammonium sulfate, 0.5% (v/v) PEG 3350, 19 °C; 2.7 Å; four copies of each protein in the asymmetric unit (VapB4C4)
# [3] = target: T1, VapBC complex (VapB:His6-VapC), …; experiment: EMSA; single shift, highest affinity site; 2.5 ng/ul VapBC, 0.1 mg/ml salmon sperm DNA; conditions: protein: recombinant; tags: His6 on VapC; chain copies: 4;4; label: 5'-32P on SF-EMSA2-f; blunt
Binder,stoichiometry N [1],stoichiometry N [2],binding result [3]
"Shigella flexneri VapC toxin (MvpT) (natural protein, Untagged in this construct, purified through His6-VapB; also called PIN domain) MLKFMLDTNICIFTIKNKPASVRERFNLNQGKMCISSVTLMELIYGAEKSQMPERNLAVIEGFVSRIDVLDYDAAAATHTGQIRAELARQGRPVGPFDQMIAGHARSRGLIIVTNNTREFERVGGLRTEDWS",4,–,–
"Shigella flexneri VapB antitoxin (His6-VapB) (natural protein, UniProt O06663 1-75, looked up, VapB antitoxin of the vapBC locus of the Shigella flexneri 2a virulence plasmid pMYSH6000; gene optimized for expression; No cleavage of the tag is described; In the assembly four copies of VapB stand with four of VapC (VapB4C4)) METTVFLSNRSQAVRLPKAVALPENVKRVEVIAVGRTRIITPAGETWDEWFDGHSVSTDFMDNREQPGMQERESF",4,2,–
DNA III (dsDNA) DNA 1: ATAAACGTATATCCCTTTGACATATCCCGG DNA 2: CCGGGATATGTCAAAGGGATATACGTTTAT,–,–,binds
